Data from publication PMC12239582, “The cyclic di-GMP receptor YcgR links the second messenger with the putrescine quorum sensing system in modulation of Dickeya oryzae motility” (mBio, 2025).

Target: T1, SpeA-His (Dickeya oryzae EC1, UniProt A0AB39IRQ5 1-658)
T1 sequence (looked up): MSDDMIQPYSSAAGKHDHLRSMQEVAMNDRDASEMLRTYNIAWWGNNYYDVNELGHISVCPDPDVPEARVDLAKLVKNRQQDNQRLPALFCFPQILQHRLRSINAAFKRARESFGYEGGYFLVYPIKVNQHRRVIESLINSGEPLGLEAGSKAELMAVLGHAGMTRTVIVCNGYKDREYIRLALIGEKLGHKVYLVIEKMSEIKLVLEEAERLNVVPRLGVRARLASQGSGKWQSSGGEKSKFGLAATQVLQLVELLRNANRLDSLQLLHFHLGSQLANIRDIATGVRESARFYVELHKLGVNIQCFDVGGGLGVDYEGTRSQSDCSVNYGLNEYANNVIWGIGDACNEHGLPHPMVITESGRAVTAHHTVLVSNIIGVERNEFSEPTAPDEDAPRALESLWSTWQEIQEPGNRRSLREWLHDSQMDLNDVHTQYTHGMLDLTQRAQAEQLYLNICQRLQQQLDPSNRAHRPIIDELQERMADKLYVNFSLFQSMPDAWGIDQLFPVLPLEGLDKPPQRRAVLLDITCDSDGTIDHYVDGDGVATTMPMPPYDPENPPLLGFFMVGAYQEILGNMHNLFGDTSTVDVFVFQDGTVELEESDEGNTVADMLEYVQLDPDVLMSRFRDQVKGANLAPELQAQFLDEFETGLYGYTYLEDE
Assay: cell-based or functional assay

B1: GST-YcgR (natural protein)
chain: MDVVDDNMKEQYARRGKMAICATLRGLQKQDATVMVYHTHGQFISKILEVDSDEEEFLFDLGALERENSRALFAGELGFVAETAGAKVEFRTTIIRTVEHDNLPAFCAAIPDVLYYIQRRNFFRINSPAWPPMVCRGELPDSTYFEFNLKDLSLGGLCMYTDDQGLAVLFEPGMILKNVDVDLASYGQFCLDMEFVNHATTKVVDSKGEVKQIERLSFKFPTLSAVQERGLQQVITELELDQNEKRKRLR
- yield of agmatine made by SpeA in vitro (OPA fluorescence) with YcgR added at a 2:1 ratio, against the reaction without YcgR; 75% increase at 1 h to about 160% at 2 h: ~160%
